Laboratory results: US20140227225, “HCV Helicase Inhibitors and Methods of Use Thereof” (UWM RESEARCH FOUNDATION, INC., published 2014)

Biological target: SSB single-stranded DNA-binding protein (Escherichia coli, UniProt P0AGE0 P0AGE0:2-178)
Test: FP; complex of 5 nM Cy5-dT15 with 20 nM SSB, disrupted by compounds; 25 mM MOPS pH 7.5, 1.25 mM MgCl2
Conditions: tags: Promega; chain copies: 4; label: 5'-Cy5
Method: The Escherichia coli SSB assay was performed in a total volume of 20.2 μl in 384-well, flat-bottom, low volume, black microplates (Greiner Bio-One).
For IC₅₀ determination, assays were performed with 60 μl total volume in black flat bottomed 384-well microplates (Corning). First, 3.0 μl of DMSO or compound dissolved in DMSO was added, such that the final concentration of DMSO was 5% (v/v) in each assay.

Chain of SSB single-stranded DNA-binding protein (P0AGE0 2-178, one chain of several): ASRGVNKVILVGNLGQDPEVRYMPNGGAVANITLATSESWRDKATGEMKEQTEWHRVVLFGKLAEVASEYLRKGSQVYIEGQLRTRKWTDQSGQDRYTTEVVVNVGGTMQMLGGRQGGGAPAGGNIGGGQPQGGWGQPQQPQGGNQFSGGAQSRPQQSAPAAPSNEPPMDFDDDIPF

B1: Cy5-dT15 (ssDNA)
DNA: TTTTTTTTTTTTTTT
B1: binds.
